Data as given in US5731326A, “PDGF antagonists II” (ZymoGenetics, Inc., priority 1996, dated 1998).

Key:
[1] = system: baboon smooth muscle cells; test: Inhibition of PDGF-BB mitogenic activity on baboon smooth muscle cells ([3H] thymidine incorporation); assay type: cell-based; settings: vehicle 74
Experimental: NNC92-0270 was analyzed for the ability to inhibit the mitogenic activity of PDGF on baboon smooth muscle cells. All mitogenesis assays performed on baboon vascular smooth muscle cells (BVSMCs) were done on primary cultures of cells between passages 13 and 20 in culture. The initial cultures were established from outgrowth of aortic tissue explants. Baboon smooth muscle cells were plated at approximately 20,000 cells per well, in DMEM supplemented with 10% fetal calf serum, into 24-well culture dishes. One day prior to use the culture media was removed, and 1 ml of Mito Media (Table 5) was added to each well to allow the cells to become quiescent. At the time of the experiment the cells were stimulated with PDGF-BB. […] 20× stock solutions were made for each of the PDGF concentrations by dilution in 10 mM acetic acid containing 0.25% albumin, and 50 ul PDGF or dilution vehicle alone was added to the culture wells.
To analyze the activity of NNC92-0270 to neutralize PDGF-BB mitogenic activity, 1 ng/ml of PDGF was added to wells along with dilutions of NNC92-0270. The cells were incubated with the test samples for approximately 20 hours at 37 ° C. Fifty microliters of a 20× stock solution of [3H] Thymidine was then added to each well to give a final concentration of 1 μCi/ml. The cells were incubated for 4 hours at 37 ° C., washed with PBS, then harvested with trypsin and counted for [^3 H] thymidine incorporation in a Wallac (Turku, Finland) Betaplate™ liquid scintillation counter.
NNC92-0270 was incubated with 1 ng/ml of PDGF-BB in the presence of 0.5 U/ml of unfractionated heparin. The cells were pulse labeled with [^3 H] thymidine as described above and the level of [^3 H] thymidine determined.

[2] = system: baboon smooth muscle cells; test: Wash-out study of PDGF-BB mitogenic activity on baboon smooth muscle cells; assay type: cell-based; settings: T = -24 hrs 0.5% DMSO; T = 0 hrs PDGF-BB (1 ng/ml); mean +/- SD; vehicle only 164 +/- 10
Experimental: NNC92-0270 was analyzed for prolonged inhibitory effect on PDGF-BB mitogenic activity on baboon smooth muscle cells in a wash-out experiment. Baboon SMCs were plated at 20,000 cells per well in a 24-well culture dish and grown for 2 days. The culture media was removed and replaced with Mito Media (Table 5) to allow the cells to become quiescent. The experiment was set up such that cells were treated with NNC92-0270 or vehicle control (0.5% DMSO) for either 24 hours prior to the addition of PDGF-BB, or sequentially with the addition of PDGF-BB. Those cells initially treated with NNC92-0270 or control vehicle for 24 hours, were washed with Mito Media to remove the test compound and then incubated with PDGF-BB (1 ng/ml) for an additional 24 hours. A second set of cells was treated with NNC92-0270 or vehicle control simultaneously with PDGF-BB for 24 hours. The cells were pulse labeled for 4 hours with [^3 H] thymidine (1 μCi/ml final) harvested with trypsin and counted in a Wallac Betaplate counter to determine CPM for [^3 H] thymidine incorporation.
Acetic acid (10 mM) was used as the PDGF-BB vehicle control and 0.5% DMSO was used as the test compound control.

B1: PDGF-BB: platelet derived growth factor BB, mitogenic stimulus used for the standard curve (protein, UniProt P01127 82-190, looked up)
Platelet-derived growth …: SLGSLTIAEPAMIAECKTRTEVFEISRRLIDRTNANFLVWPPCVEVQRCSGCCNNRNVQCRPTQVQLRPVQVRKIEIVRKKPIFKKATVTLEDHLACKCETVAAARPVT
modifications: homodimer
notes: platelet derived growth factor BB, mitogenic stimulus used for the standard curve
B1 was tested, and the “3H Thymidine (CPM Incorporated), PDGF-BB standard curve” value (shortened to “3H Thymidine (CPM Incorporated)”) ([1]; PDGF-BB 0.062 ng/ml) was 120 CPM, the “3H Thymidine (CPM Incorporated)” value ([1]; PDGF-BB 0.125 ng/ml) was 226 CPM and the “3H Thymidine (CPM Incorporated)” value ([1]; PDGF-BB 0.25 ng/ml) was 392 CPM. The “3H Thymidine (CPM Incorporated)” value ([1]; PDGF-BB 0.5 ng/ml) was 959 CPM, the “3H Thymidine (CPM Incorporated)” value ([1]; PDGF-BB 1 ng/ml) was 1701 CPM and the “[3H] Thymidine Incorporation (cpm)” value [2] was 6370 +/- 1303 cpm.
